Test results taken from IntAct's records for PubMed 16885985.

B1: Merlin (Homo sapiens), P35240 (parent)
chain: MAGAIASRMSFSSLKRKQPKTFTVRIVTMDAEMEFNCEMKWKGKDLFDLVCRTLGLRETWFFGLQYTIKDTVAWLKMDKKVLDHDVSKEEPVTFHFLAKFYPENAEEELVQEITQHLFFLQVKKQILDEKIYCPPEASVLLASYAVQAKYGDYDPSVHKRGFLAQEELLPKRVINLYQMTPEMWEERITAWYAEHRGRARDEAEMEYLKIAQDLEMYGVNYFAIRNKKGTELLLGVDALGLHIYDPENRLTPKISFPWNEIRNISYSDKEFTIKPLDKKIDVFKFNSSKLRVNKLILQLCIGNHDLFMRRRKADSLEVQQMKAQAREEKARKQMERQRLAREKQMREEAERTRDELERRLLQMKEEATMANEALMRSEETADLLAEKAQITEEEAKLLAQKAAEAEQEMQRIKATAIRTEEEKRLMEQKVLEAEVLALKMAEESERRAKEADQLKQDLQEAREAERRAKQKLLEIATKPTYPPMNPIPAPLPPDIPSFNLIGDSLSFDFKDTDMKRLSMEIEKEKVEYMEKSKHLQEQLNELKTEIEALKLKERETALDILHNENSDRGGSSKHNTIKKLTLQSAKSRVAFFEEL
partner: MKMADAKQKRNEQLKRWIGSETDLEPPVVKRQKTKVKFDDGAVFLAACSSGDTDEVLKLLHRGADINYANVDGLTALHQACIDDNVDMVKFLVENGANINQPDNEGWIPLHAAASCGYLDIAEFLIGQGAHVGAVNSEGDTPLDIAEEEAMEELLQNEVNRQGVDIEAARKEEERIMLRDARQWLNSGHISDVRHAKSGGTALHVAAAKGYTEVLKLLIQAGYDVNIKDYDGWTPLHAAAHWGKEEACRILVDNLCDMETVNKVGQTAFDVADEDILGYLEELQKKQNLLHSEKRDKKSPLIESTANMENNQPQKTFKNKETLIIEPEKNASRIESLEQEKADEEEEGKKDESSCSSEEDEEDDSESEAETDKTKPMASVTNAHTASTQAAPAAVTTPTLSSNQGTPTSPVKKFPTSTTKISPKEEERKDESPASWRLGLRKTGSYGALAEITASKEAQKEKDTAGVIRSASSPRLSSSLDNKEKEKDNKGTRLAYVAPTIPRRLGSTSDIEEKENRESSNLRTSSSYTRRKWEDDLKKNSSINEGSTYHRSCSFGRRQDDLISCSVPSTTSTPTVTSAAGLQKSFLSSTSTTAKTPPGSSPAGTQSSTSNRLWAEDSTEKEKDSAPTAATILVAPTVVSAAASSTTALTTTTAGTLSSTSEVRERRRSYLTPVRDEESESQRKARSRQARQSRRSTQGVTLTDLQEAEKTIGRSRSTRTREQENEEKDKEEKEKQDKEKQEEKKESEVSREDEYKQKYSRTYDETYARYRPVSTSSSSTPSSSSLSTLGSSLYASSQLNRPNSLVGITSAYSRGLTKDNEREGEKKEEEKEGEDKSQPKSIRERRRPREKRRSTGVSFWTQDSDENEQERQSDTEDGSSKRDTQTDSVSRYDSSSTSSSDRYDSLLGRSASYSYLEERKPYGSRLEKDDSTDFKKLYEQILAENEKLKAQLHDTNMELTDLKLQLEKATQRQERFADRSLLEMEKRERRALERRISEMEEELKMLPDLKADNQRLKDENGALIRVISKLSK

Variants of: B1
Details: with mypt1_rat Ppp1r12a

| Variant | effect of a mutation on the interaction |
| --- | --- |
| S518A | decreasing interaction |
